This passage reports percent of the protein removed from the extract by Suc1 beads results from article PMC2199964.

The target in this assay is Suc1 protein coupled to CNBr-Sepharose beads (UniProt P08463). Kind of assay: pull-down.

Some results are limits rather than exact numbers.

Sequence of Suc1 protein coupled to CNBr-Sepharose beads (P08463 whole entry): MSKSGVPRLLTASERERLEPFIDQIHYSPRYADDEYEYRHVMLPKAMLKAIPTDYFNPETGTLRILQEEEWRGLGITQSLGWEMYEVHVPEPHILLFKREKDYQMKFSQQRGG

For “Xenopus cyclin E, endogenous in interphase egg extract (natural protein)”, the percent of the protein removed from the extract by Suc1 beads was above 90%.
